The values below come from patent US20220127642A1, “CONTROLLABLE GENOME EDITING SYSTEM” (APPLIED STEMCELL, INC., priority 2019, published 2022).

Residue numbers refer to the chain shown, from its start. Entries after “also recorded” stand apart in the source; their conditions may differ.

This data set relates to sgRNA target sequence in pCAG-EGxxFP plasmid, HEK293T cells. Briefly: EGxxFP assay of candidate SaCas9 constructs (reconstituted EGFP expression). In kind it is cell-based. Conditions: tetracycline aptamer and conditional exon inserted in position 2 and 8; FIG. 9. How it is done: The activity of candidate SaCas9 genes were then tested in an EGxxFP assay as described by Mashiko D et al. (see Sci Rep (2013) 3:3355). In short, the pCAG-EGxxFP plasmid containing 5′ and 3′ EGFP fragments that shares 482 bp under ubiquitous CAG promoter was prepared. An approximately 500 bp region containing the sgRNA target sequence was placed between EGFP fragments of pCAG-EGxxFP plasmid. The pCAG-EGxxFP plasmid was cotransfected with the candidate SaCas9 construct and sgRNA into HEK293T cells. When the candidate SaCas9 gene is properly transcribed and spliced, the target sequence in the EGxxFT gene was digested by sgRNA guided SaCas9 protein, the homologous dependent repair took place and reconstituted the EGFP expression.

B1: M2: tetracycline aptamer domain M2 (SEQ ID NO: 16) controlling splicing of a conditional exon in SaCas9 gene (nucleic acid)
chain: TTTCAGGCGCTAAAACATACCAGATGAAAGTCTGGAGAGGTGAAGAATACGACCACCTAGCGCCTGAAA
modifications: listed as DNA, chemistry not fully specified
On to B1, for which the “regulating the expression of SaCas9 (EGxxFP assay)” value is on record as “worked well; also recorded: performed the best”.

B2: M3: tetracycline aptamer domain M3 (SEQ ID NO: 18) controlling splicing of a conditional exon in SaCas9 gene (nucleic acid)
chain: B1 chain with T11C, A59G
modifications: listed as DNA, chemistry not fully specified
B2: the “regulating the expression of SaCas9 (EGxxFP assay)” value was “worked well”.
